Test results taken from patent publication US20220146501A1.

Assays:
[1] = target: anti-C-reactive protein antibody (MAB-1); assay: TR-FRET competition, acceptor emission; unlabeled CRP calibrator at 2.9 mg/L
[2] = target: anti-C-reactive protein antibody (MAB-1); assay: TR-FRET competition, acceptor emission; unlabeled CRP calibrator at 8.1 mg/L
[3] = target: anti-C-reactive protein antibody (MAB-1); assay: TR-FRET competition, acceptor emission; unlabeled CRP calibrator at 20.4 mg/L
[4] = target: anti-C-reactive protein antibody (MAB-1); assay: TR-FRET competition, acceptor emission; unlabeled CRP calibrator at 60.5 mg/L
[5] = target: anti-C-reactive protein antibody (MAB-1); assay: TR-FRET competition, acceptor emission; unlabeled CRP calibrator at 118.7 mg/L
[6] = target: anti-C-reactive protein antibody (MAB-1); assay: TR-FRET competition; labeled anti-CRP MAB-1 with labeled CRP as tracer; unlabeled CRP calibrator at 2.9 mg/L
[7] = target: anti-C-reactive protein antibody (MAB-1); assay: TR-FRET competition; labeled anti-CRP MAB-1 with labeled CRP as tracer; unlabeled CRP calibrator at 8.1 mg/L
[8] = target: anti-C-reactive protein antibody (MAB-1); assay: TR-FRET competition; labeled anti-CRP MAB-1 with labeled CRP as tracer; unlabeled CRP calibrator at 20.4 mg/L
[9] = target: anti-C-reactive protein antibody (MAB-1); assay: TR-FRET competition; labeled anti-CRP MAB-1 with labeled CRP as tracer; unlabeled CRP calibrator at 60.5 mg/L
[10] = target: anti-C-reactive protein antibody (MAB-1); assay: TR-FRET competition; labeled anti-CRP MAB-1 with labeled CRP as tracer; unlabeled CRP calibrator at 118.7 mg/L

Acceptor1RFU [1]: 210000 RFU
Acceptor1RFU [2]: 162000 RFU
Acceptor1RFU [3]: 103000 RFU
Acceptor1RFU [4]: 49700 RFU
Acceptor1RFU [5]: 29900 RFU
FRETRatio [6]: 17100
FRETRatio [7]: 13100
FRETRatio [8]: 8220
FRETRatio [9]: 3980
FRETRatio [10]: 2320
B1: C-reactive protein (unlabeled analyte / calibrator) (protein)
chain: QTDMSRKAFVFPKESDTSYVSLKAPLTKPLKAFTVCLHFYTELSSTRGYSIFSYATKRQDNEILIFWSKDIGYSFTVGGSEILFEVPEVTVAPVHICTSWESASGIVEFWVDGKPRVRKSLKKGYTVGAEASIILGQEQDSFGGNFEGSQSLVGDIGNVNMWDFVLSPDEINTIYLGGPFSPNVLNWRALKYEVQGEVFTKPQLWP
